Data published in patent US20120064064A1.

Biological target: human IL1-R (human) (UniProt P14778)
Test: cell-based or functional assay

Chain of UniProt P14778 (P14778 18-569): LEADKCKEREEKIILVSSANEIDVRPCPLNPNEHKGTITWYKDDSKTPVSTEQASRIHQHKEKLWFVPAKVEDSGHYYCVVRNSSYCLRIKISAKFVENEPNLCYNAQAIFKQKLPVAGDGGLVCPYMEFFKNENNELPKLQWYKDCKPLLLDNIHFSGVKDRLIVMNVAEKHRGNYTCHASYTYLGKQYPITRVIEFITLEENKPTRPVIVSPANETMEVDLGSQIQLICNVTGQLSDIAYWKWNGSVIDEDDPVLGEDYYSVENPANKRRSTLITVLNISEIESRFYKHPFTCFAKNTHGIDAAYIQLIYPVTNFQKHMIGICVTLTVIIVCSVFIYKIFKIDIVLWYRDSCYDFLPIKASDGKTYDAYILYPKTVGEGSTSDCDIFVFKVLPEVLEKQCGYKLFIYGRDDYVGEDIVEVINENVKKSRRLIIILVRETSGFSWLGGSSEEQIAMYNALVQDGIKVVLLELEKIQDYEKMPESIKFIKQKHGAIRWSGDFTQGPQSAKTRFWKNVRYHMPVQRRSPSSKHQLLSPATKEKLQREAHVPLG

- IL-8 release assay in MRC-5 cells (IL-1a stimulated), EC50: 0.074 nM
Substance: natural IL1-R antagonist (IL1-Ra) (from UniProt P18510 26-177) (ligand)
